According to article doi:10.1101/2022.02.24.481830 (bioRxiv, 2022):

Key:
[1] = biological target: H3 COBRA TJ5 HA protein (Influenza A virus H3, synthetic …)
[2] = biological target: H3 COBRA J4 HA protein (Influenza A virus H3, synthetic …)
[3] = biological target: H3 COBRA NG2 HA protein (Influenza A virus H3, synthetic …)

Measured: binding result

B1: TJ5-16 (antibody, V domains shown)
VH: EVQLVQSGAEVKKPGASVKVSCKASGYTFTGYYIYWVRQAPGQGLEWMGWINPNGGGTNYAQKFQGRVTMTRDTSITTAYMELSRLRSDDSAVYYCAARAGPGTQDAQTIDFWGQGTLVTVSS
VL: SYELTQPPSVSVSPGQTARITCSGDALPKQYGYWYQQKPGQAPVLVIYKDSERPSGIPERFSGSSSGTTVTLTISGVQAEDEADYYCQSADSSGSYWVFGGGTKLT
binds: all assays above
